Positions count from the first letter of the chain named. Names and notes keep the numbering of the source.
T1: PUF4 RNA-binding domain (Saccharomyces cerevisiae, UniProt P25339 537-888)
T1 sequence: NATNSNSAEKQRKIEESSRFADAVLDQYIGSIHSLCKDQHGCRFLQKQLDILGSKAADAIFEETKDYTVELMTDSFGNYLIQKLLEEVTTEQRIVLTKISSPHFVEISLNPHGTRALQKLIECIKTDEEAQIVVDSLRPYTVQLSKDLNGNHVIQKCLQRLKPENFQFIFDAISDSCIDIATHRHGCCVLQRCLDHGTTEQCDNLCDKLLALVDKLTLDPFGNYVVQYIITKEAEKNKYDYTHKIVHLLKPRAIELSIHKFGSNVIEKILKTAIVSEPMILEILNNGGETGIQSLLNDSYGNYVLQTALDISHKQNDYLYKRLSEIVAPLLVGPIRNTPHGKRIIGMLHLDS

B1: Ic_S4_P5E.1_K5.1_C5.1_H5.1_A5.1_[T6C]_[A7T]_F5.1_[T9A]_[A10G]_T5.1 (ssRNA)
RNA: UUUGACAACUGAUCGUUCUUUCUUGUAUCUUAGUUCUUUCUCGAUCAGUUGUCUUU
B2: Ic_S4_P5E.1_K5.1_C5.1_H5.1_A5.1_[T5A]_[A7G]_F5.1_[T8C]_[T9A]_[A10T]_T5.1 (ssRNA)
RNA: B1 RNA with U28A, C29U, U30G, U31C, G33U
B3: Ic_S4_P5E.1_K5.1_C5.1_H5.1_A5.1_[T5G]_[A7T]_F5.1_[T9C]_[A10C]_T5.1 (ssRNA)
RNA: B1 RNA with U28G, C29U, A32C, G33C
B4: Ic_S4_P5E.1_K5.1_C5.1_H5.1_A5.1_[T6A]_[A7C]_F5.1_[T8C]_[T9G]_[A10T]_T5.1 (ssRNA)
RNA: B1 RNA with C29A, U30C, U31C, A32G, G33U
B5: Ic_S4_P5E.1_K5.1_C5.1_H5.1_A5.1_[T6A]_[A7T]_F5.1_[T8C]_[T9G]_[A10C]_T5.1 (ssRNA)
RNA: B1 RNA with C29A, U31C, A32G, G33C
B6: Ic_S4_P5E.1_K5.1_C5.1_H5.1_A5.1_[T5C]_[T6G]_[A7G]_F5.1_[T9A]_T5.1 (ssRNA)
RNA: B1 RNA with U28C, C29G, U30G, G33A
B7: Ic_S4_P5E.1_K5.1_C5.1_H5.1_A5.1_[T5G]_[A7G]_F5.1_[T8C]_[T9C]_[A10T]_T5.1 (ssRNA)
RNA: B1 RNA with U28G, C29U, U30G, U31C, A32C, G33U
B8: Ic_S4_P5E.1_K5.1_C5.1_H5.1_A5.1_[T6C]_F5.1_[T8A]_[T9A]_[A10C]_T5.1 (ssRNA)
RNA: B1 RNA with U30A, U31A, G33C
B9: Ic_S4_P5E.1_K5.1_C5.1_H5.1_A5.1_[T5G]_F5.1_[T8A]_[T9C]_[A10C]_T5.1 (ssRNA)
RNA: B1 RNA with U28G, C29U, U30A, U31A, A32C, G33C
B10: Ic_S4_P5E.1_K5.1_C5.1_H5.1_A5.1_[T6C]_F5.1_[T8C]_[T9A]_[A10T]_T5.1 (ssRNA)
RNA: B1 RNA with U30A, U31C, G33U
B11: Ic_S4_P5E.1_K5.1_C5.1_H5.1_A5.1_[T5C]_[T6C]_[A7G]_F5.1_[T8A]_[T9C]_[A10C]_T5.1 (ssRNA)
RNA: B1 RNA with U28C, U30G, U31A, A32C, G33C
B12: Ic_S4_P5E.1_K5.1_C5.1_H5.1_A5.1_[T5C]_[A7C]_F5.1_[T9C]_[A10G]_T5.1 (ssRNA)
RNA: B1 RNA with U28C, C29U, U30C, A32C
B13: Ic_S4_P5E.1_K5.1_C5.1_H5.1_A5.1_[T5C]_[T6G]_[A7T]_F5.1_[T8C]_[T9C]_[A10C]_T5.1 (ssRNA)
RNA: B1 RNA with U28C, C29G, U31C, A32C, G33C
B14: Ic_S4_P5E.1_K5.1_C5.1_H5.1_A5.1_[T6C]_[A7G]_F5.1_[T8G]_T5.1 (ssRNA)
RNA: B1 RNA with U30G, U31G, A32U, G33A
B15: Ic_S4_P5E.1_K5.1_C5.1_H5.1_A5.1_[T5C]_[A7C]_F5.1_[T8A]_[T9G]_[A10C]_T5.1 (ssRNA)
RNA: B1 RNA with U28C, C29U, U30C, U31A, A32G, G33C
B16: Ic_S4_P5E.1_K5.1_C5.1_H5.1_A5.1_[T5C]_[T6C]_[A7T]_F5.1_[A10T]_T5.1 (ssRNA)
RNA: B1 RNA with U28C, A32U, G33U
B17: Ic_S4_P5E.1_K5.1_C5.1_H5.1_A5.1_[T6A]_[A7G]_F5.1_[T9A]_[A10C]_T5.1 (ssRNA)
RNA: B1 RNA with C29A, U30G, G33C
B18: Ic_S4_P5E.1_K5.1_C5.1_H5.1_A5.1_[A7C]_F5.1_[T8G]_[A10G]_T5.1 (ssRNA)
RNA: B1 RNA with C29U, U30C, U31G, A32U
B19: Ic_S4_P5E.1_K5.1_C5.1_H5.1_A5.1_[T5C]_[T6A]_[A7T]_F5.1_[T8G]_[A10G]_T5.1 (ssRNA)
RNA: B1 RNA with U28C, C29A, U31G, A32U
B20: Ic_S4_P5E.1_K5.1_C5.1_H5.1_A5.1_[T5A]_[T6C]_[A7T]_F5.1_[T8C]_[T9A]_T5.1 (ssRNA)
RNA: B1 RNA with U28A, U31C, G33A
B21: Ic_S4_P5E.1_K5.1_C5.1_H5.1_A5.1_[T5G]_[T6C]_[A7T]_F5.1_[T8C]_[T9C]_[A10C]_T5.1 (ssRNA)
RNA: B1 RNA with U28G, U31C, A32C, G33C
B22: Ic_S4_P5E.1_K5.1_C5.1_H5.1_A5.1_[T5C]_[T6A]_[A7C]_F5.1_[T9G]_[A10G]_T5.1 (ssRNA)
RNA: B1 RNA with U28C, C29A, U30C, A32G
B23: Ic_S4_P5E.1_K5.1_C5.1_H5.1_A5.1_[T5C]_F5.1_[T9A]_[A10C]_T5.1 (ssRNA)
RNA: B1 RNA with U28C, C29U, U30A, G33C
B24: Ic_S4_P5E.1_K5.1_C5.1_H5.1_A5.1_[T5C]_[T6C]_[A7T]_F5.1_[T8C]_[T9C]_T5.1 (ssRNA)
RNA: B1 RNA with U28C, U31C, A32C, G33A
B25: Ic_S4_P5E.1_K5.1_C5.1_H5.1_A5.1_[A7T]_F5.1_[T8C]_[T9C]_T5.1 (ssRNA)
RNA: B1 RNA with C29U, U31C, A32C, G33A
B26: Ic_S4_P5E.1_K5.1_C5.1_H5.1_A5.1_[T5A]_F5.1_[T9C]_T5.1 (ssRNA)
RNA: B1 RNA with U28A, C29U, U30A, A32C, G33A

Molecular target: T1, PUF4 RNA-binding domain
Experiment: Mg; RNA-MaP; 20 mM Na-HEPES pH 7.4, 30 mM KOAc, 0.75 mM MgCl2, 0.1% Tween-20, 5% glycerol, 0.1 mg/mL BSA, 2 mM DTT; 25 C; 0.0125-409.6 nM protein
Conditions: tags: N-His6-TEV cleaved; C-SNAP kept, Cy3B-labelled; label: tethered on chip by stalled RNA polymerase

Binder | Kd [nM]
B1 | 3.48
B2 | 844
UCUCUUUGUAAAUUGUCUCUU (ssRNA) [Ic_S1_P4E.1_K4.1_C4.1_H4.1_A4.1_[T5A]_F4.1_[A9G]_T4.1] | 10.9
B3 | 125
B4 | 37.8
B5 | 21.8
B6 | 38.4
B7 | 956
B8 | 156
B9 | 1160
B10 | 183
B11 | 1020
B12 | 120
UCUCUUUGUACAUUCUCUCUU (ssRNA) [Ib_S1_P4E.1_K4.1_C4.1_H4.1_A4.1_[T5C]_F4.1_[A9C]_T4.1] | 5.41
B13 | 114
B14 | 45.9
B15 | 730
B16 | 12.3
B17 | 3.94
B18 | 66.3
B19 | 24
B20 | 857
B21 | 658
B22 | 14.9
UCUCUUUGUAAAUUCUCUCUU (ssRNA) [Ib_S1_P4E.1_K4.1_C4.1_H4.1_A4.1_[T5A]_F4.1_[A9C]_T4.1] | 26.3
B23 | 3.28
B24 | 198
B25 | 120
B26 | 113

Source: paper PMC9352680, “A comprehensive thermodynamic model for RNA binding by the Saccharomyces cerevisiae Pumilio protein PUF4”
